Assay results: article PMC11927390 (Cancer Research Communications, 2025)

T1: human ULBP6-02 extracellular domain (residues R26-G218) (human, UniProt Q5VY80 26-218, glycosylation of residues N68 and N82 (in the crystal structure))
T1 construct: the construct of the SPR with NKG2D and of the cell assays is only called ULBP6-02 or recombinant ULBP6-02; also called sULBP6-02; sULBP6; source: recombinant, 23andMe, Inc; mammalian expression system
T1 sequence (looked up): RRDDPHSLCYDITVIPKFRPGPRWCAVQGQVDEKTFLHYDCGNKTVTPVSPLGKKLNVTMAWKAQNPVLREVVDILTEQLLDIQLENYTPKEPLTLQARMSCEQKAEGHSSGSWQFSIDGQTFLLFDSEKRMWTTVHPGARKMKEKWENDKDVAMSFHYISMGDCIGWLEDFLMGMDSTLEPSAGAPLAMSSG


Key:
Conditions in all cases: both partners purified
[1] = biological target: T1, human ULBP6-02 extracellular domain …; test: SPR; Biacore 8K or 8K+, 37°C; Fc-tagged human NKG2D (0.5 μg/mL) captured on Series S Sensor Protein A chip to about 25 RU; threefold serial dilutions of NKG2DLs injected at 30 μL/minute in HBS-P (0.01 mol/L HEPES pH 7.4, 0.15 mol/L NaCl, 0.005% P20); KD from steady-state fit
human ULBP3 = human ULBP3 (Homo sapiens (Human)., UniProt Q9BZM4); test: SPR; 23ME-01473 and human ULBPs, as described for NKG2D (Biacore, 37°C, Protein A chip, HBS-P, ligands injected); one-to-one Langmuir model, KD = kd/ka
Chain of human ULBP3 (Q9BZM4 30-217): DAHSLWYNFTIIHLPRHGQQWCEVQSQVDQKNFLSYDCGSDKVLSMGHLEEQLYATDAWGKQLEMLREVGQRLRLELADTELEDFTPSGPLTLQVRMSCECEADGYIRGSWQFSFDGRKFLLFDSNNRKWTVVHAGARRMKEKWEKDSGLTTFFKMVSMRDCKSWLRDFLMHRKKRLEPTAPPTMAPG

human ULBP5 = human ULBP5 (Homo sapiens (Human)., UniProt Q6H3X3); test: as above
Chain of human ULBP5 (Q6H3X3 26-218): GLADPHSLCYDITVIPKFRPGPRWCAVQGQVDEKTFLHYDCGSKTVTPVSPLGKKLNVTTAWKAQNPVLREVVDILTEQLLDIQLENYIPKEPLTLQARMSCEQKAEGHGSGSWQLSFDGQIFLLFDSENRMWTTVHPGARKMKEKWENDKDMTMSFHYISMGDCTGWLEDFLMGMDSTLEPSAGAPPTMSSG

human ULBP1 = human ULBP1 (Homo sapiens (Human)., UniProt Q9BZM6); test: as above
Chain of human ULBP1 (Q9BZM6 26-216): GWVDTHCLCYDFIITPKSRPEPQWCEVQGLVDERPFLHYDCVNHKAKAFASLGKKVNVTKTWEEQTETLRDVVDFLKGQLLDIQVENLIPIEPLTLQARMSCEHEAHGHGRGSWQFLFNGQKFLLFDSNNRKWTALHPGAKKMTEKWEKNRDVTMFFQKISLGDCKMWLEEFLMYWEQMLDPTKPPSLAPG

[2] = biological target: human ULBP6 (allelic isoform not stated) (Homo sapiens, ULBP6-02 allele (R26, …, UniProt Q5VY80)); test: as above
human ULBP2 = human ULBP2 (Homo sapiens (Human)., UniProt Q9BZM5); test: as above
Chain of human ULBP2 (Q9BZM5 26-217): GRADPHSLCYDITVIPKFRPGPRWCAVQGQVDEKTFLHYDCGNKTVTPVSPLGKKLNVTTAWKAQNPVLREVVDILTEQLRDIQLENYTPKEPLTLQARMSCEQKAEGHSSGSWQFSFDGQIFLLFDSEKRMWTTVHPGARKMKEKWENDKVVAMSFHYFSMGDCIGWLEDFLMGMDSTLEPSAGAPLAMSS

biotinylated ULBP6-02 = biotinylated ULBP6-02 (human, UniProt Q5VY80, biotin); test: ELISA; blocking assay: plates coated with Fc-tagged NKG2D; biotinylated ULBP5 (1.55 nmol/L) or ULBP6-02 (0.15 nmol/L) at its EC80 precomplexed with 23ME-01473 and transferred to the plates; IC50 from dose-response fit
biotinylated ULBP5 = biotinylated ULBP5 (human, UniProt Q6H3X3, biotin); test: as above
Chain of biotinylated ULBP5 (Q6H3X3 26-218): as the sequence (Q6H3X3 26-218) above

binding result [1]	binding result (human ULBP3)	Kd (human ULBP5) [nM]	binding result (human ULBP1)	Kd [2] [nM]	Kd (human ULBP2) [nM]	IC50 (biotinylated ULBP6-02) [nM]	IC50 (biotinylated ULBP5) [nM]	Binder
binds								Fc-tagged human NKG2D (Fc fusion, UniProt P26718 73-216, looked up, NK group 2D receptor (NKG2D), human; also called Fc-tagged NKG2D) IWSAVFLNSLFNQEVQIPLTESYCGPCPKNWICYKNNCYQFFDESKNWYESQASCMSQNASLLKVYSKEDQDLLKLVKSYHWMGLVHIPTNGSWQWEDGSILSPNLLTIIEMQKGDCALYASSFKGYIENCSTPNTYICMQRTV
	no binding	1.92	no binding	0.053	0.23	0.04	0.31	23ME-01473, humanized Fc effector-enhanced (afucosylated) anti-ULBP6/2/5 antibody (antibody, V domains shown, variable domain as in the heavy chain of the Fab m2; human IgG1 heavy constant region; as the light chain of m2; Humanized by CDR grafting from a mouse hybridoma clone; also called Fc-enhanced anti-ULBP6/2/5 antibody; source: CHO FUT8-KO, transfected, purified (Protein A, SEC Superdex 200)) VH: EVQLVESGGGLVQPGGSLRLSCAASGFTFSTYGFHWVRQAPGKGLEWVAYISSNSGTIDYADTVKGRFTISRDNAKNSLYLQMNSLRAEDTAVYYCARQGYGFDNWGQGTTVTVSS VL: DIQLTQSPSSLSASVGDRVTITCSASSRVSYMNWYQQKPGKSPKIWVYGISNLASGVPSRFSGSGSGTDFTFTISSLQPEDIATYYCQQRSSHPLTFGGGTKVEIK
